Data published in patent US20200317768A1 (published 2020).
Substitutions are numbered along the chain they refer to. In names and notes the source's numbering stands. Values belong to the binder of their own block, whether it stands above or below them.

Columns and labels:
[1] = biological target: T1, cynomolgus monkey FcγRIIIaS extracellular domain, C-terminal His-tag (cynomolgus monkey, UniProt Q8SPW2 21-206 at identity 1.00)); assay: SPR (Biacore), antibody captured, FcgR analyte
T1 construct: also called cyno FcγRIIIaS; cynoFcγRIIIaS
T1 chain: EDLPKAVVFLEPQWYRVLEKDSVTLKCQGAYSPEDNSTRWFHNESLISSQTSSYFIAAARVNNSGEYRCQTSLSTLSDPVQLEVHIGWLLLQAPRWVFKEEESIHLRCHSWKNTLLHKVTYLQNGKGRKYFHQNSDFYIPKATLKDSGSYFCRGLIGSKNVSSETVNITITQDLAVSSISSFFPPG

[2] = biological target: T2, human FcγRIIb extracellular domain, C-terminal His-tag (human, UniProt P31994 43-217); assay: SPR (Biacore), antibody captured, FcgR analyte
T2 construct: also called human FcgRIIb; FcgRIIb
T2 sequence: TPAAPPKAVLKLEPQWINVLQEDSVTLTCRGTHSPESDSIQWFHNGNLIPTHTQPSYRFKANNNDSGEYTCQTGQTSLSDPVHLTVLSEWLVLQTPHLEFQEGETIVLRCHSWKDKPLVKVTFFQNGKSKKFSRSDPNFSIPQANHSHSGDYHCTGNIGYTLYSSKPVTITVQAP

[3] = biological target: T3, cynomolgus monkey FcγRIIa3 extracellular domain, C-terminal His-tag (cynomolgus monkey); assay: SPR (Biacore), antibody captured, FcgR analyte
T3 construct: also called cyno FcγRIIa3; cynoFcgRIIa3
T3 chain: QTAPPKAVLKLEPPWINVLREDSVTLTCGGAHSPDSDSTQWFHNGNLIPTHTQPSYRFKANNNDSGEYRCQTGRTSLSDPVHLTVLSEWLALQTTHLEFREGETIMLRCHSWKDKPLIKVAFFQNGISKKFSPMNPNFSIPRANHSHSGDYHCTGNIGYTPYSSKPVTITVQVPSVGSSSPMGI

[4] = biological target: T4, human FcγRIIIaV extracellular domain, C-terminal His-tag (human, UniProt P08637 17-208); assay: SPR (Biacore), antibody captured, FcgR analyte
T4 construct: also called human FcgRIIIaV; FcgRIIIaV

[5] = biological target: T5, cynomolgus monkey FcγRIIb extracellular domain, C-terminal His-tag (cynomolgus monkey); assay: SPR (Biacore), antibody captured, FcgR analyte
T5 construct: also called cyno FcγRIIb; cynoFcγRIIb
T5 chain: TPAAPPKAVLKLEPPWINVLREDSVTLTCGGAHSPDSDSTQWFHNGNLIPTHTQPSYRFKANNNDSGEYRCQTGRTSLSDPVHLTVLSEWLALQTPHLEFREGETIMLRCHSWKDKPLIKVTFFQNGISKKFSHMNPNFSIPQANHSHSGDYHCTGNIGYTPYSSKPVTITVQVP

[6] = biological target: T6, human FcγRIIaR extracellular domain, C-terminal His-tag (human, UniProt P12318 34-217); assay: SPR (Biacore), antibody captured, FcgR analyte
T6 construct: also called human FcγRIIa (type R); FcgRIIaR
T6 chain: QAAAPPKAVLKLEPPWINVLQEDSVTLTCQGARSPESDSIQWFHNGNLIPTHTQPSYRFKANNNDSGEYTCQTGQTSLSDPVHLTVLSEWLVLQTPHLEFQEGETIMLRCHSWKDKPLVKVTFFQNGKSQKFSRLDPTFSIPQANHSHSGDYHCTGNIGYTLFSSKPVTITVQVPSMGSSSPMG

[7] = biological target: T7, human FcγRIIaH extracellular domain, C-terminal His-tag (human, UniProt P12318 34-217); assay: SPR (Biacore), antibody captured, FcgR analyte
T7 construct: also called human FcγRIIa (type H); FcgRIIaH
T7 sequence: T6 chain with R134H

[8] = biological target: T8, cynomolgus monkey FcγRIIa2 extracellular domain, C-terminal His-tag (cynomolgus monkey); assay: SPR (Biacore), antibody captured, FcgR analyte
T8 construct: also called cyno FcγRIIa2; cynoFcgRIIa2
T8 chain: T3 chain with I127K, K130N, P133H, R142Q

[9] = biological target: T9, cynomolgus monkey FcγRIIa1 extracellular domain, C-terminal His-tag (cynomolgus monkey); assay: SPR (Biacore), antibody captured, FcgR analyte
T9 construct: also called cyno FcγRIIa1; cynoFcgRIIa1
T9 chain: T3 chain with T95P, A121T, S128A, P133H, N135D

[10] = biological target: T1, cynomolgus monkey FcγRIIIaS …; assay: SPR (Biacore); KD of SG1 / KD of variant;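 also: relative to parent M103205H795-SG1 carrying the SG1 human heavy chain constant region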
Procedure: (§1) The kinetic analysis of interactions between these antibodies and FcγR was carried out using BIACORE® T200 or BIACORE® 4000 (GE Healthcare). HBS-EP+ (GE Healthcare) was used as the running buffer, and the measurement temperature was set to 25° C. A chip produced by immobilizing Protein A. Protein A/G or mouse anti-human IgG kappa light chain (BD Biosciences) onto a Series S Sensor Chip CM4 or CM5 (GE Healthcare) by the amine-coupling method was used. […] After the measurement, the antibody captured on the chip was washed off by allowing reaction with 10 mM glycine-HCl, pH1.5 and 25 mM NaOH so that the chip was regenerated and used repeatedly. The sensorgrams obtained as measurement results were analyzed by the 1:1 Langmuir binding model using the BIACORE® Evaluation Software to calculate the binding rate constant ka (L/mol/s) and dissociation rate constant kd (l/s), and the dissociation constant KD (mol/L) was calculated from these values. […] Regarding such interactions, KD values were calculated using the following 1:1 binding model described in BIACORE® T100 Software Handbook BR1006-48 Edition AE.
(§2) The behavior of interacting molecules according to the 1:1 binding model on BIACORE® can be described by Equation 1: Req=C·R max/(KD+C)+RI, wherein, Req is a plot of steady-state binding levels to analyte concentration. C is concentration, RI is bulk refractive index contribution in the sample, and Rmax is analyte binding capacity of the surface. When this equation is rearranged, KD can be expressed as Equation 2: KD=C·Rmax/(Req−RI)−C. KD can be calculated by substituting the values of Rmax, RI, and C into Equation 1 or Equation 2. From the current measurement conditions, RI=0, C=2 μmol/L can be used.

[11] = biological target: T2, human FcγRIIb extracellular domain, …; assay: SPR (Biacore); KD of SG1 / KD of variant;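 also: relative to parent M103205H795-SG1 carrying the SG1 human heavy chain constant region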
Procedure: as §1, §2

[12] = biological target: T3, cynomolgus monkey FcγRIIa3 …; assay: SPR (Biacore); KD of SG1 / KD of variant;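 also: relative to parent M103205H795-SG1 carrying the SG1 human heavy chain constant region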
Procedure: as §1, §2

[13] = biological target: T5, cynomolgus monkey FcγRIIb extracellular …; assay: SPR (Biacore); KD of SG1 / KD of variant;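 also: relative to parent M103205H795-SG1 carrying the SG1 human heavy chain constant region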
Procedure: as §1, §2

[14] = biological target: T6, human FcγRIIaR extracellular domain, …; assay: SPR (Biacore); KD of SG1 / KD of variant
Procedure: as §1, §2

[15] = biological target: T8, cynomolgus monkey FcγRIIa2 …; assay: SPR (Biacore); KD of SG1 / KD of variant
Procedure: as §1, §2

[16] = biological target: T9, cynomolgus monkey FcγRIIa1 …; assay: SPR (Biacore); KD of SG1 / KD of variant
Procedure: as §1, §2

[17] = biological target: T10, cynomolgus monkey FcγRIIa3 extracellular domain, C-terminal His-tag (cynomolgus monkey); assay: SPR; FcgR bound per captured antibody, normalized to SG1
T10 construct: also called cyno FcγRIIa3; FcgRIIa3
T10 chain: T3 chain
Procedure: as §1
(§3) The value of the amount of FcγR binding was obtained by dividing the amount of FcγR bound by the amount of each antibody captured.

[18] = biological target: T11, cynomolgus monkey FcγRIIa1 extracellular domain, C-terminal His-tag (cynomolgus monkey); assay: as above
T11 construct: also called cyno FcγRIIa1; FcgRIIa1
T11 chain: T3 chain with T95P, A121T, S128A, P133H, N135D
Procedure: as §1, §3

[19] = biological target: T12, cynomolgus monkey FcγRIIb extracellular domain, C-terminal His-tag (cynomolgus monkey); assay: as above
T12 construct: also called cyno FcγRIIb; cynoFcγRIIb
T12 chain: T5 chain
Procedure: as §1, §3

[20] = biological target: T13, cynomolgus monkey FcγRIIa2 extracellular domain, C-terminal His-tag (cynomolgus monkey); assay: as above
T13 construct: also called cyno FcγRIIa2; FcgRIIa2
T13 chain: T3 chain with I127K, K130N, P133H, R142Q
Procedure: as §1, §3

T4 sequence (P08637 17-208 F176V): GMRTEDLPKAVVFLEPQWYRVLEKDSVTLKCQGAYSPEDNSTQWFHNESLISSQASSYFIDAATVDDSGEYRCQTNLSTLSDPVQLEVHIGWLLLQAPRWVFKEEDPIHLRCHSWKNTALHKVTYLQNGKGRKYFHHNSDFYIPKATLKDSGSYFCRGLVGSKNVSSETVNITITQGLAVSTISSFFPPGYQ

- Kd [1]: 2300 nM
- Kd [2]: 740 nM
- Kd [3]: 3800 nM
- Kd [4]: 7700 nM
- Kd [5]: 440 nM
- Kd [6]: 13000 nM
- Kd [7]: 650 nM
- Kd [8]: 820 nM
- Kd [9]: 890 nM
- KD fold (SG1 = 1) [10]: 0.16 fold
- KD fold (SG1 = 1) [11]: 6.2 fold
- KD fold (SG1 = 1) [12]: 4.5 fold
- KD fold (SG1 = 1) [13]: 4.1 fold
- KD fold (SG1 = 1) [14]: 0.8 fold
- KD fold (SG1 = 1) [15]: 5.7 fold
- KD fold (SG1 = 1) [16]: 3.6 fold
B1: M103205H795-MY144/M103202L889-SK1 (antibody, human IgG1, kappa)
heavy: QVTLKESGPVLVKPTETLTLTCTVSGIDLSHDDISWVRQAPGKGLEWVGIISYAGSTYYASWAKGRLTISKDTSKNQVVLTMTNMDPVDTATYYCARGVPAYSHGGDLWGQGTLVTVSSASTKGPSVFPLAPSSKSTSGGTAALGCLVKDYFPEPVTVSWNSGALTSGVHTFPAVLQSSGLYSLSSVVTVPSSSLGTQTYICNVNHKPSNTKVDKKVEPKSCDKTHTCPPCPAPELLNGPSVFLFPPKPKDTLMISRTPEVTCVVVDVSDEDPEVKFNWYVDGVEVHNAKTKPREEQYNSTYRVVSVLTVLHQDWLNGKEYKCKVSNKALPAPIEKTISKAKGQPREPQVYTLPPSREEMTKNQVSLTCLVKGFYPSDIAVEWESNGQPENNYKTTPMVLDSDGSFFLYSKLTVDKSRWQQGNVFSCSVMHEALHNHYTQKSLSLSP
light: DIVMTQSPATLSLSPGERATLSCTSSQSVYHANWLSWFQQKPGQPPKLLIYWASTLAYGVPSRFSGSGSGTDFTLTISSLQPEDAATYYCAGGYGGGRYAFGQGTKVEIKRTVAAPSVFIFPPSDEQLKSGTASVVCLLNNFYPREAKVQWKVDNALQSGNSQESVTEQDSKDSTYSLSSTLTLSKADYEKHKVYACEVTHQGLSSPVTKSFNRGEC
notes: P369M is read as a misprint of P396M

- amount of FcgR binding (SG1 = 100) [17]: 17 SG1 = 100
- amount of FcgR binding (SG1 = 100) [18]: 13 SG1 = 100
- amount of FcgR binding (SG1 = 100) [19]: 14 SG1 = 100
- amount of FcgR binding (SG1 = 100) [20]: 13 SG1 = 100
B2: M103205H795-SG175/M103202L889-SK1 (antibody, human IgG1, kappa)
heavy: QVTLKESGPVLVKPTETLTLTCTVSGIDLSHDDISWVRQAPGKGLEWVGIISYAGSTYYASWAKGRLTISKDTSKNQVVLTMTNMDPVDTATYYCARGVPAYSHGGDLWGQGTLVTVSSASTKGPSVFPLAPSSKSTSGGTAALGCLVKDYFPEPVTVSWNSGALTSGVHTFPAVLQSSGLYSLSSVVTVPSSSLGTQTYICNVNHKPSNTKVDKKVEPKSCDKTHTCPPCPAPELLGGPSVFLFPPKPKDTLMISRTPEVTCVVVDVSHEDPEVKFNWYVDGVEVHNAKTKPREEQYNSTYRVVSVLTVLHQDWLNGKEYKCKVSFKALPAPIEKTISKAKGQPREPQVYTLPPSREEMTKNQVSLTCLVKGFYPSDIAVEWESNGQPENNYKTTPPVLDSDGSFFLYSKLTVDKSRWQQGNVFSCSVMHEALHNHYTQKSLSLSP
light: B1 light
notes: also called N325F

- amount of FcgR binding (SG1 = 100) [17]: 30 SG1 = 100
- amount of FcgR binding (SG1 = 100) [18]: 18 SG1 = 100
- amount of FcgR binding (SG1 = 100) [19]: 30 SG1 = 100
- amount of FcgR binding (SG1 = 100) [20]: 17 SG1 = 100
B3: M103205H795-SG165/M103202L889-SK1 (antibody, human IgG1, kappa)
heavy: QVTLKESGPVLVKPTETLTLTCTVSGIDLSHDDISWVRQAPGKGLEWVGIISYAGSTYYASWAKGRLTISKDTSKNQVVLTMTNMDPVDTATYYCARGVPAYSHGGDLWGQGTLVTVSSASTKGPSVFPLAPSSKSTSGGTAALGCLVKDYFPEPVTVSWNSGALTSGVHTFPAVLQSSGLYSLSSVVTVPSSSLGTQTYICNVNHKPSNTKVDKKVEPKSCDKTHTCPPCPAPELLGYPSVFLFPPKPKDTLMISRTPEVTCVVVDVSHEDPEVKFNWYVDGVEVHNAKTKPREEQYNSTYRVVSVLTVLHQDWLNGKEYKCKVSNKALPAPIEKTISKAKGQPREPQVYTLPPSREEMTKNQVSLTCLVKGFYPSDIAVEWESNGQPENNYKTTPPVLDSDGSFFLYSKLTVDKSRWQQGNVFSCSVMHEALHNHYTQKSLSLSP
light: B1 light
notes: also called G237Y

- amount of FcgR binding (SG1 = 100) [17]: 18 SG1 = 100
- amount of FcgR binding (SG1 = 100) [18]: 17 SG1 = 100
- amount of FcgR binding (SG1 = 100) [19]: 20 SG1 = 100
- amount of FcgR binding (SG1 = 100) [20]: 20 SG1 = 100
B4: M103205H795-SG171/M103202L889-SK1 (antibody, human IgG1, kappa)
heavy: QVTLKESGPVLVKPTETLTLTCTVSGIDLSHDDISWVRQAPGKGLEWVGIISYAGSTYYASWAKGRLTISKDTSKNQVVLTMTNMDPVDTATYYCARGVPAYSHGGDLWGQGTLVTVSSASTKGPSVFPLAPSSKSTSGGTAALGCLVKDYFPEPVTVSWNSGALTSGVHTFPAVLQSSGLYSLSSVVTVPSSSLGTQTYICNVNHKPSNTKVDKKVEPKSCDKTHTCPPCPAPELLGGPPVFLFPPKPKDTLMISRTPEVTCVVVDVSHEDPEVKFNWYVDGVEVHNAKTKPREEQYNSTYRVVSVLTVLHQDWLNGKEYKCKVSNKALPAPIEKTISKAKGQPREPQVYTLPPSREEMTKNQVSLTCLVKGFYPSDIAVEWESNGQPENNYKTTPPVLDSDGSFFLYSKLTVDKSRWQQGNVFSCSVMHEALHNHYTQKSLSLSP
light: B1 light
notes: also called S239P
